Data reported in patent US20260274981A1 (VIB VZW, published 2026).

T1: recombinant cynomolgus TfR (90253-C07H, Sino Biological), biotinylated (cynomolgus monkey, UniProt Q5RDH6 89-760 (Pongo abelii entry), biotinylated with EZ-Link NHS-PEG4-Biotinylation Kit)
T1 construct: Bought protein; also called immobilized recombinant cynomolgus TfR
T1 chain: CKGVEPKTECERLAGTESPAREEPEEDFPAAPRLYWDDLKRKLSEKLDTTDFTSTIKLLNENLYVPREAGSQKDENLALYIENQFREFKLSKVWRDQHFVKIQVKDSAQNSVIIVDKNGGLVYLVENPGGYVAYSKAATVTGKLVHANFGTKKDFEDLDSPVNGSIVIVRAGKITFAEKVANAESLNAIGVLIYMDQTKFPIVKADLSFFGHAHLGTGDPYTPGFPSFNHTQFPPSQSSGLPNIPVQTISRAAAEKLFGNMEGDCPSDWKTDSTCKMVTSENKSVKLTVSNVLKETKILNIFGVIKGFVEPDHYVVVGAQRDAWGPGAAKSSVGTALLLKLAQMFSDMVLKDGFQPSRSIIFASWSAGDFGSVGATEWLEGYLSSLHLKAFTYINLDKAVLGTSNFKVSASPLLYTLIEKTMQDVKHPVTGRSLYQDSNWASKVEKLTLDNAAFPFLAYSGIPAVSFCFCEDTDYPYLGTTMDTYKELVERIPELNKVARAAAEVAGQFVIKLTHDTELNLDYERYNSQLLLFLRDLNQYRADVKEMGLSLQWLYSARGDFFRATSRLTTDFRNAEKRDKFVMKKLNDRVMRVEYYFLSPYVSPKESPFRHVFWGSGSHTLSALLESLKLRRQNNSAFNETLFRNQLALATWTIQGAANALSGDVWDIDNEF

B1: BBB00515 (VHH)
VHH: QVQLQESGGGLVQAGGSLRLSCAASGSIFSINAMGWYRQAPGKQRELVAVITSGGSTIYADSVKGRFTISRDNAENTVYLQMNSLKPEDTAVYYCNAHVGLKVPTIQELSLGFGSWGQGTQVTVSS
notes: Lead VHH expressed in E. coli TG1 and purified by IMAC; detected with anti-FLAG antibody in flow cytometry; also called BBB00515 VHH; not shown: C-terminal 3xFlag/6xHis tag from expression vector pBDS119
B2: BBB00533 (VHH)
VHH: QVQLQESGGGSVQPGGSLRLSCTASGRTFNYAMGWFRQAPGKNREFVATIDWKDGSSYYLDSVRGRFTIERDDAKNTVYLQMNSLKPEDAAVYTCAVGDGDYCSTYTCAAEVEYDYWGQGTQVTVSS
notes: Lead VHH expressed in E. coli TG1 and purified by IMAC; detected with anti-FLAG antibody in flow cytometry; also called BBB00533 VHH; not shown: C-terminal 3xFlag/6xHis tag from expression vector pBDS119

How the values were obtained:
[1] = target: T2, recombinant human TfR (2474-TR, R&D Systems), biotinylated (human, UniProt P02786 89-760, biotinylated with EZ-Link NHS-PEG4-Biotinylation Kit); test: SPR (Biacore T200), biotinylated human TfR captured on SA chip, VHH as analyte, single cycle kinetics
T2 construct: Bought protein; also called immobilized recombinant human TfR; biotinylated human TfR
Description: (§1) Phage libraries generated after 4 biweekly immunizations of two different camelids, underwent two rounds of pannings on CHO cell lines overexpressing either cynomolgus TfR in the first round or human TfR in the second round. Output libraries were screened with flow cytometry to find binders to human TfR overexpressing cells (FIG. 1A). […] Binding kinetics to recombinant human and cynomolgus TfR were further characterized with Surface Plasmon Resonance (SPR).
(§2) Surface Plasmon Resonance (SPR) was used to measure the interaction between VHHs and human or cynomolgus TfR receptor. Human TfR (2474-TR, R&D Systems) and cynomolgus TfR (90253-C07H, Sino Biological) were biotinylated with the EZ-Link NHS-PEG4-Biotinylation Kit (ThermoFischer Scientific) according to the manufacturer instructions. The binding experiments were performed at 25° C. on a Biacore T200 instrument (Cytiva, Uppsala, Sweden) in HBS-EP+ buffer (10 mM HEPES, 150 mM NaCl, 3 mM EDTA and 0.05% v/v Surfactant P20). Biotinylated human TfR and cynomolgus TfR were captured on a SA sensor chip (Cytiva) at a density of around 250 RU. Increasing concentrations of VHHs were sequentially injected in one single cycle at a flow rate of 30 μl/min. The dissociation was monitored for 20 min. […] A reference flow was used as a control for non-specific binding and refractive index changes. Several buffer blanks were used for double referencing. […]

[2] = target: T1, recombinant cynomolgus TfR (90253-C07H, …); test: SPR (Biacore T200), biotinylated cynomolgus TfR captured on an SA chip as ligand, VHH as analyte, single cycle kinetics, 1:1 binding model
Description: as §1
(§3) Surface Plasmon Resonance (SPR) was used to measure the interaction between VHHs and human or cynomolgus TfR receptor. Human TfR (2474-TR, R&D Systems) and cynomolgus TfR (90253-C07H, Sino Biological) were biotinylated with the EZ-Link NHS-PEG4-Biotinylation Kit (ThermoFischer Scientific) according to the manufacturer instructions. The binding experiments were performed at 25° C. on a Biacore T200 instrument (Cytiva, Uppsala, Sweden) in HBS-EP+ buffer (10 mM HEPES, 150 mM NaCl, 3 mM EDTA and 0.05% v/v Surfactant P20). Biotinylated human TfR and cynomolgus TfR were captured on a SA sensor chip (Cytiva) at a density of around 250 RU. Increasing concentrations of VHHs were sequentially injected in one single cycle at a flow rate of 30 μl/min. The dissociation was monitored for 20 min. […] A reference flow was used as a control for non-specific binding and refractive index changes. Several buffer blanks were used for double referencing. Binding affinities (KD) and kinetic rate constants (kₒₙ, koff) were derived after fitting the experimental data to the 1:1 binding model with the Biacore T200 Evaluation Software 3.1 using the single cycle kinetic procedure. Each interaction was repeated a least three times.

[3] = target: T3, human TfR overexpressed on CHO cells (human, UniProt P02786 1-760); test: flow cytometry on CHO cells overexpressing human TfR (CHO-hTfR), VHH detected with anti-FLAG-iFluor647; median Flag-i647 intensity in total GFP cells
T3 construct: construct is TfR followed by an HA tag and IRES-GFP; also called hTfR; human transferrin receptor
Protocol: (§4) Output libraries were screened with flow cytometry to find binders to human TfR overexpressing cells (FIG. 1A). […] Binding kinetics to recombinant human and cynomolgus TfR were further characterized with Surface Plasmon Resonance (SPR).
(§5) Periplasmic extracts diluted 1:10 in PBS 2% FBS, or a dilution range of different VHH or bispecific antibody concentrations prepared in PBS 2% FBS, were incubated with 0.1 million CHO cells overexpressing either the human, cynomolgus or mouse TfR for 30 min at 4° C. As control for background binding, periplasmic extracts, VHHs or bispecific antibodies were also incubated with 0.1 million CHO cells overexpressing GFP. Binding of VHHs was next resolved by a second step 30 min incubation at 4° C. with an anti-FLAG-iFluor647 antibody (A01811, Genscript) diluted 1:500 for screening and 1:250 for validation assays, or with anti-human IgG Fc-Alexa Fluor647 antibody (410714, BioLegend) diluted 1:200. […] Cells were fixed with 4% paraformaldehyde before being analyzed. Flp-In™-CHO™ cells used as unstained control and single stain controls were used to determine the cut-off point between background fluorescence and positive populations. […] The data was acquired with an Attune Nxt flow cytometer (Invitrogen) and analyzed by FCS Express 7 Research Edition.

[4] = target: T2, recombinant human TfR (2474-TR, R&D …); test: SPR (Biacore T200), biotinylated human TfR captured on an SA chip as ligand, VHH as analyte, single cycle kinetics, 1:1 binding model
Description: as §1, §3

[5] = target: T1, recombinant cynomolgus TfR (90253-C07H, …); test: SPR (Biacore T200), biotinylated cynomolgus TfR captured on SA chip, VHH as analyte, single cycle kinetics
Description: as §1, §2

[6] = target: T4, mouse TfR overexpressed on CHO cells (mouse, UniProt Q62351 1-763); test: flow cytometry on CHO cells overexpressing mouse TfR (CHO-mTfR), VHH detected with anti-FLAG-iFluor647; median Flag-i647 intensity in total GFP cells
T4 construct: whole, on cells
T4 sequence (Q62351 whole entry): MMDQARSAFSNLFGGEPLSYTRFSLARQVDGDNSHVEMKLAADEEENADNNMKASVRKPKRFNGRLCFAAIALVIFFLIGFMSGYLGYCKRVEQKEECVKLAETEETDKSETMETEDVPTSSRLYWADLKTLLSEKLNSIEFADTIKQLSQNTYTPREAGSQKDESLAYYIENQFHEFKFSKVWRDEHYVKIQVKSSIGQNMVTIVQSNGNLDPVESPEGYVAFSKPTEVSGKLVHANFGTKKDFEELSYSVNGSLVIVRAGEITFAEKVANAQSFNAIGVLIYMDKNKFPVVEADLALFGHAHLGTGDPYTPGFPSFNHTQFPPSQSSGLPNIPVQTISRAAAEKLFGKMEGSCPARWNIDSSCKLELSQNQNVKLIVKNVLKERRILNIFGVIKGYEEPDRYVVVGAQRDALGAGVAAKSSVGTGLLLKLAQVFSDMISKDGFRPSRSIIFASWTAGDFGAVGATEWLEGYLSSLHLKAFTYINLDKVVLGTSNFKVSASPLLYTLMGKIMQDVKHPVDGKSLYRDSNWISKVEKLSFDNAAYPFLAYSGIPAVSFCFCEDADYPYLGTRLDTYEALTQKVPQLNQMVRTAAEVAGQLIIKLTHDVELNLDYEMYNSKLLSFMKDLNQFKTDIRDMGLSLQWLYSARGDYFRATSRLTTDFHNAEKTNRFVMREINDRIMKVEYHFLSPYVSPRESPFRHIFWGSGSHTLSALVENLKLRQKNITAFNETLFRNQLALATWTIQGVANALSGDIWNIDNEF
Protocol: as §4, §5

Binder	Kd [1]	koff [2]	kon [2]	EC50 (read off the curve) [3]	koff [4]	kon [4]	Kd [5]	binding result [6]
B1	1180 nM	0.00942 s⁻¹	149000 M⁻¹ s⁻¹	~50 nM	0.0137 s⁻¹	15000 M⁻¹ s⁻¹	63 nM	no binding (tested: Log10 Conc 3.5 (about 3000 nM))
B2	207 nM	0.0118 s⁻¹	115000 M⁻¹ s⁻¹	~50 nM	0.00592 s⁻¹	29000 M⁻¹ s⁻¹	104 nM	no binding (tested: Log10 Conc 3.5 (about 3000 nM))
